Laboratory results reported in article PMC5428533.

Experiments:
[1] = target: complement component C9 (human) (UniProt P02748); test: MST; FH (6.67 µM) or C9 (15.15 µM) labelled with NT-647 RED-NHS; non-labelled CbiA diluted 1:2 from 76 to 0.0002 µM; fluid phase, 20% LED power, 80% MST power, 30 s, Monolith NT.115, room temperature, triplicate
[2] = target: complement regulator Factor H (FH) (human) (UniProt P08603); test: as above
Sequence of UniProt P08603 (P08603 19-1231): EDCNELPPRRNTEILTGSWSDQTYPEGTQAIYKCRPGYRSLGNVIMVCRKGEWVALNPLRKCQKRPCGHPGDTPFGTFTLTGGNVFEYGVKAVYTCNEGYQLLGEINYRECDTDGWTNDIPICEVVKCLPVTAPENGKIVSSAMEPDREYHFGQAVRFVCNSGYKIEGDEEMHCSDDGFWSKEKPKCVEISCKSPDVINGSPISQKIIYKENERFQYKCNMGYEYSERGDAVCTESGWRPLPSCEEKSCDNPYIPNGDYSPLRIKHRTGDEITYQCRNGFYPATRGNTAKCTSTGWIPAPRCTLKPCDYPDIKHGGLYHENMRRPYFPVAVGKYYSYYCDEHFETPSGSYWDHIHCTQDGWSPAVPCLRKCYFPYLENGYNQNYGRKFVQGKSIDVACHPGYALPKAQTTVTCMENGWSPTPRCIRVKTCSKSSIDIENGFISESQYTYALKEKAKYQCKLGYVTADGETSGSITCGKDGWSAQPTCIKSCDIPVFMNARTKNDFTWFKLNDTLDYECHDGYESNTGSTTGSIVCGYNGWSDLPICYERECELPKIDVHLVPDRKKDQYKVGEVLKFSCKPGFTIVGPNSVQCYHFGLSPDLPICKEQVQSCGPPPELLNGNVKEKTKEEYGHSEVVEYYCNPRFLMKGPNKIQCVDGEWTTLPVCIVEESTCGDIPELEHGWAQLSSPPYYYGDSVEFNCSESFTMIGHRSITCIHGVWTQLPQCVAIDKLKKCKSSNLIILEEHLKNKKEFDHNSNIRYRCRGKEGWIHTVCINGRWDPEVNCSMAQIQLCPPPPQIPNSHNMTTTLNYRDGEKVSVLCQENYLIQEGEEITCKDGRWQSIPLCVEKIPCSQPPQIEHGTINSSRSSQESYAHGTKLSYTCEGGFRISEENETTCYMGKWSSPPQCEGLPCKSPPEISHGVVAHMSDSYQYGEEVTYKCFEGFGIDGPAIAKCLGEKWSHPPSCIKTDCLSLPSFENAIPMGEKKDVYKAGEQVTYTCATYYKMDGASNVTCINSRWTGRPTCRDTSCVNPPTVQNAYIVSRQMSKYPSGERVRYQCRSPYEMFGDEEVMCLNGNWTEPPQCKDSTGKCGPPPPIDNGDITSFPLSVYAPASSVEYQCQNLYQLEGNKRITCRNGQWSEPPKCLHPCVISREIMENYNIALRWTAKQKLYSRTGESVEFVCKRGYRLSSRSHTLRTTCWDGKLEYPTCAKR

Sequence of UniProt P02748 (P02748 22-559): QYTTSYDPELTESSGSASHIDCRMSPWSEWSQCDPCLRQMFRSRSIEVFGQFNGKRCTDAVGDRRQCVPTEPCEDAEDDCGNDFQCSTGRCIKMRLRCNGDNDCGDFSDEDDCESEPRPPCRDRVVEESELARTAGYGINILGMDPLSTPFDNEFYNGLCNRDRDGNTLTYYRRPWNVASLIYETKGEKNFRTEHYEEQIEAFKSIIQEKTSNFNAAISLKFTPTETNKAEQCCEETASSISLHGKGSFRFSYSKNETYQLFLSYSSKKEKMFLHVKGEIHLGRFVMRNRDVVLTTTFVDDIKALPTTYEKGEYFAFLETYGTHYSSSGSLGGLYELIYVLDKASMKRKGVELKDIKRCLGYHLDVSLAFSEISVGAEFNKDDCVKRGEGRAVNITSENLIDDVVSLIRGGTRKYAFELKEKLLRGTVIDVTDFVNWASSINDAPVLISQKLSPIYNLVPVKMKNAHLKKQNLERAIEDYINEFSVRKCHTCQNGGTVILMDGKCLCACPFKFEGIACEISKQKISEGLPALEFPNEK

Question: “CbiA (complement binding and inhibitory protein A) of B. miyamotoi HT31, His6-tagged recombinant protein (natural protein)” was tested. Which Kd [1] did it give?
Answer: 0.0524 µM

Question: And the Kd [2]?
Answer: 6.59 µM
